The values below come from paper doi:10.1101/429076 (bioRxiv, 2018).

The term Kd denotes the constant that tells how readily two partners part at equilibrium. Higher therefore signals lower affinity.

Residue numbers refer to the chain shown, from its start. Numbers in names are those of the source.

T1: FANCL URD-RING fragment (FANCL^UR, residues 109-375) (human, UniProt Q9NW38 109-375)
T1 sequence (looked up): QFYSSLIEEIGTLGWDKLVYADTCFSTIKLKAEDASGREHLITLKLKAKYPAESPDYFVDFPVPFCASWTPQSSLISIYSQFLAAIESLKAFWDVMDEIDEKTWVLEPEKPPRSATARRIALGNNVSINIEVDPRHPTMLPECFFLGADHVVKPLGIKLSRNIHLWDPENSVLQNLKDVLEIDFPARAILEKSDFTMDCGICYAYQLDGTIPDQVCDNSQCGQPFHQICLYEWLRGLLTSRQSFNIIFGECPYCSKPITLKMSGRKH

B1: Ube2T wildtype (enzyme, human, UniProt Q9NPD8 1-197, looked up)
chain: MQRASRLKRELHMLATEPPPGITCWQDKDQMDDLRAQILGGANTPYEKGVFKLEVIIPERYPFEPPQIRFLTPIYHPNIDSAGRICLDVLKLPPKGAWRPSLNIATVLTSIQLLMSEPNPDDPLMADISSEFKYNKPAFLKNARQWTEKHARQKQKADEEEMLDNLPEAGDSRVHNSTQKRKASQLVGIEKKFHPDV
B2: Ube2T Glu54Arg (Ube2Tv1 variant with a permissive gate, E54R) (enzyme, human, UniProt Q9NPD8 1-197, looked up)
chain: B1 chain with E54R
B3: Ube2T loop2-loop7 hybrid mutant (D32A, D33A, L92A or DDL/AAA) (enzyme, human, UniProt Q9NPD8 1-197, looked up)
chain: B1 chain with D32A, D33A, L92A
B4: FANCL RING domain (FANCL^R, residues 289-375) (domain or fragment, human, UniProt Q9NW38 289-375, looked up)
chain: EIDFPARAILEKSDFTMDCGICYAYQLDGTIPDQVCDNSQCGQPFHQICLYEWLRGLLTSRQSFNIIFGECPYCSKPITLKMSGRKH
B5: Ube2T backside β1 double mutant (T23R+W25Q or TW/RQ) (enzyme, human, UniProt Q9NPD8 1-197, looked up)
chain: B1 chain with T23R, W25Q

Experiment in all cases: ITC
Experiment [1] addresses T1, FANCL URD-RING fragment (FANCL^UR, …).
The experiment “Ube2T wildtype” concerns the target B1.
For experiment [2], the target named is B5.

For the molecule B1, in experiment [1], the Kd was about 119 nM and the dH was determined as 6.46 kcal/mol. B2: the binding result in experiment [1] is “binds”.

In experiment [1], B3 had a Kd of about 119 nM and a dH of -1.65 kcal/mol. B4 registered a Kd in the experiment with Ube2T wildtype of about 250 nM. For the same molecule, the binding result in experiment [2] is recorded as “binds”.

On to B5, for which binding in experiment [1] was characterised by a dissociation constant (Kd) of 200 nM.
